Where two headings read alike, the source gives them in different places. Ends that are not written are not given here. Peptide text beside a SMILES is read from it. * marks the point of attachment. X1 = C=CC1=C(C)c2cc3[nH]c(cc4nc(cc5[nH]c(cc1n2)c(C)c5CCC(=O)*)C(CCC(=O)O)=C4C)c(C)c3C=C; X3 = C=CC1=C(C)c2cc3[nH]c(cc4nc(cc5[nH]c(cc1n2)c(C)c5CCC(=O)O)C(CCC(=O)*)=C4C)c(C)c3C=C; X2 = CCC1=C(C)c2cc3[nH]c(cc4nc(cc5[nH]c(cc1n2)c(C)c5CCC(=O)O)C(CCC(=O)*)=C4C)c(C)c3CC; X4 = CCC1=C(C)c2cc3[nH]c(cc4nc(cc5[nH]c(cc1n2)c(C)c5CCC(=O)*)C(CCC(=O)O)=C4C)c(C)c3CC
Legend:
JEG-3 cells [1] = details: 10 µM on apical side, 24 h incubation; percentage of compound in the basolateral side
Method: (§2) Conjugate translocation was determined by fluorescence intensity (λex= 410 nm, λem = 625 nm for MP conjugates; λex=410 nm, λem=635 nm for PP conjugates). […] After 24 h incubation, samples from the basolateral side (2) were collected and analyzed. Fluorescence was measured in a Varioskan Lux plate reader (Thermo Scientific). PPC translocation (%) was calculated as follows: PPC translocation(%) = (F_i−Fcells)/(F_PPC−F_Medium) × 100 [formula] where Fi is the fluorescence intensity of the sample collected at the basolateral side (2), Fcells is the intrinsic fluorescence intensity of cells without incubation with a peptide-protein conjugate PPC, FPPC is the intensity of total PPC initially added to the transwell apical side (1), and FMedium is the intensity of DMEM:F12 medium without phenol red.
JEG-3 cells were cultured as a monolayer on T-flasks in EMEM supplemented with 10% (v/v) FBS and 1% (v/v) Pen-Strep. Cells were grown in a humidified atmosphere of 5% CO2 at 37 °C with the medium changed every other day. Cells were allowed to grow until confluence in a culture T-flask, then carefully harvested with trypsin-EDTA and seeded (3000 cells/well) onto rat-tail collagen-coated tissue culture 24-well inserts (4). A cellular monolayer (3) with low permeability was formed 5 days after the incubation on the tissue culture insert (4). BPB translocation and integrity measurement methods are identical to those for the BBB in vitro model defined above.

ZIKV^BR [2] = details: virus pre-treated 1 h at 37 °C, in the dark, 0.01-50 µM
Method: ZIKV^BR was propagated in C6/36 cells using a multiplicity of infection (MOI) of 0.01. After infection, cells were cultured for 7 days. The culture medium collected from the infected cultures was centrifuged at 700 g to remove cellular debris, stored in aliquots at -80 °C and titrated by plaque assay.
To determine the effect of conjugates on ZIKV^BR as prepared above, 10^5 plaque forming units (PFU) were pre-treated with different concentrations of conjugates in the 0.01-50 µM range for 1 h at 37 °C, in the dark. After treatment, viral samples were serially diluted (10-fold) for titration by plaque assay. Samples were incubated for 1 h at 37 °C and 5% CO2 with Vero cells. After infection, the medium was removed and 1 mL DMEM containing 1% (v/v) FBS, 100 U/mL penicillin, 100 µg/mL streptomycin and 1.5% carboxymethylcellulose was added to each well. The plates were incubated at 37 °C and 5% CO2. After 5 days cells were fixed by 1 mL of 4% (v/v) formaldehyde in H2O for 30 min. Each plate was washed and stained with a 1% (v/v) crystal violet, 20% (v/v) ethanol solution. The number of plaques on each well was counted and corrected for well dilution to determine the pfu/mL number. The half-maximum inhibitory concentration (IC50) was determined by non-linear regression with sigmoidal profile and variable slope using the software Graphpad Prism (version 6.0), only on treatments that achieved total inhibition.

JEG-3 cells [3] = details: FD4 content in basolateral side after 24 h incubation with compound, then 2 h FD4; untreated BPB 1.23%
Method: (§3) After 24 h incubation with conjugates in the set-up shown in Figure 1, an in vitro integrity assay was performed. HBEC-5i (for BBB) or JEG-3 (for BPB) cells were washed twice with PBS and once with a medium without phenol red. DMEM:F12 medium was used with HBEC-5i cells and EMEM medium was used with JEG-3 cells. Then, previously diluted 4 kDa fluorescein isothiocyanate-dextran (FD4) (Sigma-Aldrich, Spain) in the medium indicated above for each cell line and without phenol red to an absorbance of 0.1 was added to the apical side (1) and incubated for 2 h. Samples were collected at the basolateral side (2), and fluorescence intensity was measured at λex=493 nm and λem=520 nm using a Varioskan Lux plate reader. Barrier integrity was evaluated from FD4 permeability as follows: FD4 Permeability(%) = (Fi −Fcells)/(FFD4 −FMedium) × 100 [formula] where Fi is the fluorescence intensity of the sample at the basolateral side (2), Fcells is the intrinsic fluorescence intensity of cells without FD4 incubation, FFD4 is the intensity of FD4 stock initially added to the apical side (1), and FMedium is the intensity of the medium indicated above for each cell line and without phenol red.
JEG-3 cells were cultured as a monolayer on T-flasks in EMEM supplemented with 10% (v/v) FBS and 1% (v/v) Pen-Strep. Cells were grown in a humidified atmosphere of 5% CO2 at 37 °C with the medium changed every other day. Cells were allowed to grow until confluence in a culture T-flask, then carefully harvested with trypsin-EDTA and seeded (3000 cells/well) onto rat-tail collagen-coated tissue culture 24-well inserts (4). A cellular monolayer (3) with low permeability was formed 5 days after the incubation on the tissue culture insert (4).

HBEC-5i cells [4] = details: FD4 content in basolateral side after 24 h incubation with compound, then 2 h FD4; untreated BBB 10.3%
Method: as §3

[5] = Serum stability in human serum; format: in vitro ADME; details: for half-life at 0.05 mM: human serum (1:1 v/v with HEPES buffer), pH 7.8, 37 °C, read-out: Serum half-life time (converted)
Method: Next, 600 µL of the solution comprising the conjugate or peptide were mixed (1:1 v/v) with 600 µL of human serum, to reach a final concentration of 0.05 mM. The mixture was incubated at 37 °C and, at various time points, 50 µL (in triplicate) were taken and precipitated with 200 µL cold methanol. The samples were centrifuged at 13000 rpm, 10 min, +4 °C. Afterwards, 50 µL of each supernatant were injected on an LC-20AD instrument (Shimadzu) equipped with a Luna C18 column (4.6 mm × 50 mm, 3 µm, Phenomenex, USA) and analyzed using a 0%-95% linear gradient of MeCN into 0.1% TFA in H2O over 15 min with 1 mL/min flow rate. PDA detection at 220 nm and 401 nm was used and the half-life times were calculated by peak area integration at 401 nm, the λmax of MP and PP. Controls included blank serum (25 µL each of 1:1 v/v serum + HEPES buffer, then precipitation with 200 µL cold methanol), untreated conjugate/peptide (25 µL of 0.1 mM stock in HEPES buffer + 25 µL HEPES buffer, then precipitation with 200 µL cold methanol), and a zero-time sample (200 µL cold methanol + 25 µL serum + 25 µL 0.1 mM conjugate/peptide stock), the conjugate/peptide added last to avoid any contact with protease. Controls were analyzed by LC and LC-MS as described above.

HBEC-5i cells [6] = details: 10 µM on apical side, 24 h incubation; percentage of compound in the basolateral side
Method: HBEC-5i cells were cultured as a monolayer (3) on T-flasks in DMEM:F12 supplemented with 10% (v/v) FBS, 1% (v/v) Pen-Strep and 1% (v/v) ECGS. Cells were grown in a humidified atmosphere of 5% CO2 at 37 °C (MCO-18AIC (UV), Sanyo, Japan) with the medium changed every other day. Cells were allowed to grow until confluence in a culture T-flask, then carefully harvested with trypsin-EDTA and seeded (8000 cells/well) into tissue culture 24-well inserts (4) (transparent polyester membrane with 1.0 µm pores) (BD Falcon, USA) pre-coated with attachment factor protein solution. The medium was changed every other day for 5-8 days, afterwards cells were washed with 1 × PBS followed by DMEM:F12 medium without phenol red. Next, the conjugates were diluted in DMEM:F12 without phenol red, until reaching a final 10 µM concentration, and were added to the apical side (1) of the in vitro BBB model.
as §2

HBEC-5i cells [7] = details: concentrations of up to 50 µM, 24 h
Method: (§4) HBEC-5i cells and JEG-3 cells were plated in attachment factor protein and rat-tail collagen, respectively, pre-coated 96-well flat bottom clear, black polystyrene plate (Corning, New York, USA). Afterwards cells were cultured in complete medium at 37 °C in a 5% CO2 atmosphere, with medium replaced every 2 days. When the cellular monolayer was formed, cells were treated with various concentrations of conjugates in the 6.25-50 µM range, for 24 h at 37 °C in a 5% CO2 atmosphere. Viability was evaluated by the CellTiter-Blue® assay (Promega, WI, USA), based on resazurin reduction into highly fluorescent resorufin by metabolically active cells. By distinguishing metabolic from non-metabolic cells, cytotoxicity can be indirectly determined. After incubation, cells were washed with PBS, pH 7.4, and 15 µL of CellTiterBlue® reagent in 100 µL of complete medium was added to the cells and incubated for 1.5 h at 37 °C in 5% CO2. Fluorescence (λex=560 nm, λem=590 nm), was measured in a Varioskan Lux plate reader. Complete medium and medium containing 0.25% Triton X-100 were used as positive and negative controls (100 and 0% viability), respectively. Cell viability (%) was determined as: Cell viability(%) = (F_treated−F_blank)/(F_(nontreated)−F_blank) × 100 [formula] where Ftreated is the fluorescence intensity of cells treated with a conjugate, Fnon treated is the fluorescence of untreated cells and Fblank is the fluorescence of CellTiterBlue® reagent in complete medium without cells.

JEG-3 cells [8] = details: JEG-3, concentrations of up to 50 µM, 24 h
Method: as §4

HBEC-5i cells [9] = system: HBEC-5i cells
Method: as §3

JEG-3 cells [10] = test: in vitro BPB integrity assay (FD4 permeability) after translocation assay; format: cell-based
ZIKV^BR [11] = test: ZIKV inactivation assay (plaque assay on Vero cells); format: cell-based, Zika virus; details: virus pre-treated 1 h at 37 °C, in the dark, 0.01-50 µM
ZIKV = details: read-out: IC50 value for inactivation of ZIKV, cited from earlier work
JEG-3 cells [12] = format: in vitro ADME; details: human, 24 h, 10 µM
Method: (§1) PPC translocation (%) was calculated as follows: […]

HBEC-5i cells [13] = format: in vitro ADME; details: human, 24 h, 10 µM
Method: as §1

Row | Compound | BPB translocation (%) (JEG-3 cells [1]) | IC50 (ZIKV^BR [2]) [µM] | BPB FD4 (%) (JEG-3 cells [3]) | BBB FD4 (%) (HBEC-5i cells [4]) | half-life at 0.05 mM [5] [h] | BBB translocation (%) (HBEC-5i cells [6]) | altered cell viability (HBEC-5i cells [7]) | altered cell viability (JEG-3 cells [8]) | other results
1 | C=CC1=C(C)c2cc3[nH]c(cc4nc(cc5[nH]c(cc1n2)c(C)c5CCC(=O)O)C(CCC(=O)NCCCC[C@H](NC(=O)[C@H](Cc1ccc(O)cc1)NC(=O)[C@H](CCC(=O)O)NC(=O)[C@H](CCC(=O)O)NC(=O)[C@H](CCC(N)=O)NC(=O)[C@@H](NC(=O)CNC(=O)[C@@H](N)CO)[C@@H](C)O)C(N)=O)=C4C)c(C)c3C=C [Compound P4-PP] (H-SGTQEEYK(X3)-NH2) | 15.6 | > 50 | 1.2 | 10.6 | 3.3 | 42.8 | none | none | –
2 | C=CC1=C(C)c2cc3[nH]c(cc4nc(cc5[nH]c(cc1n2)c(C)c5CCC(=O)N[C@H](C(=O)N[C@@H](CCC(N)=O)C(=O)N[C@@H](CCC(N)=O)C(=O)N[C@@H](CC(C)C)C(=O)N[C@H](C(=O)N[C@@H](CCCCN)C(=O)N[C@@H](CCCNC(=N)N)C(=O)N[C@@H](Cc1ccccc1)C(=O)N[C@@H](CO)C(=O)N[C@@H](CC(C)C)C(N)=O)[C@@H](C)O)C(C)C)C(CCC(=O)O)=C4C)c(C)c3C=C [(I)] (X1-VQQLTKRFSL-NH2) | 21.2 | – | 0.83 | 13.6 | 22.2 | 43.6 | none | none | –
3 | C=CC1=C(C)c2cc3[nH]c(cc4nc(cc5[nH]c(cc1n2)c(C)c5CCC(=O)NCCCC[C@H](NC(=O)[C@H](CC(C)C)NC(=O)[C@H](CO)NC(=O)[C@H](Cc1ccccc1)NC(=O)[C@H](CCCNC(=N)N)NC(=O)[C@H](CCCCN)NC(=O)[C@@H](NC(=O)[C@H](CC(C)C)NC(=O)[C@H](CCC(N)=O)NC(=O)[C@H](CCC(N)=O)NC(=O)[C@@H](N)C(C)C)[C@@H](C)O)C(N)=O)C(CCC(=O)O)=C4C)c(C)c3C=C [Compound P2-PP] (H-VQQLTKRFSLK(X1)-NH2) | 7.9 | > 50 | 0.90 | 13.7 | 3.6 | 35.1 | none | none | –
4 | CCC1=C(C)c2cc3[nH]c(cc4[nH]c(cc5nc(cc1n2)C(C)=C5CC)c(C)c4CCC(=O)O)c(CCC(=O)O)c3C [MP, mesoporphyrin IX] | – | – | – | – | – | – | – | – | BBB FD4 (%) (HBEC-5i cells [9]): 17.9%; BPB FD4 (%) (JEG-3 cells [10]): 1.68%; IC50 (ZIKV^BR [11]): > 50 µM
5 | CCC1=C(C)c2cc3[nH]c(cc4nc(cc5[nH]c(cc1n2)c(C)c5CCC(=O)O)C(CCC(=O)NCCCC[C@H](NC(=O)[C@H](Cc1ccc(O)cc1)NC(=O)[C@H](CCC(=O)O)NC(=O)[C@H](CCC(=O)O)NC(=O)[C@H](CCC(N)=O)NC(=O)[C@@H](NC(=O)CNC(=O)[C@@H](N)CO)[C@@H](C)O)C(N)=O)=C4C)c(C)c3CC [Compound P4-MP] (H-SGTQEEYK(X2)-NH2) | 13 | > 50 | 1.1 | 15.6 | 3 | 45.8 | none | none | –
6 | C=Cc1c(C)c2cc3[nH]c(cc4nc(cc5nc(cc1[nH]2)C(C)=C5CCC(=O)[O-])C(CCC(=O)[O-])=C4C)c(C)c3C=C.[Co+2] [CoPPIX] | – | – | – | – | – | – | – | – | IC50 (ZIKV; with light activation): 5.79 µM; IC50 (ZIKV; without light activation): 2.49 µM
7 | VQQLTKRFSL-NH2 [Peptide having SEQ ID NO1, reference compound] | – | – | – | – | – | – | – | – | Serum half-life time ([5]; 0.05 mM, 37 °C): 0.73 h
8 | C=CC1=C(C)c2cc3[nH]c(cc4nc(cc5[nH]c(cc1n2)c(C)c5CCC(=O)O)C(CCC(=O)O)=C4C)c(C)c3C=C [PP, protoporphyrin IX] | – | – | – | – | – | – | – | – | BPB translocation (%) (JEG-3 cells [12]): 14.2%; BBB translocation (%) (HBEC-5i cells [13]): 47.8%; BBB FD4 (%) (HBEC-5i cells [9]; human, 2 h, 10 µM): 24.7%; BPB FD4 (%) (JEG-3 cells [10]; human, 2 h, 10 µM): 0.87%; IC50 (ZIKV^BR [11]; Zika virus, Vero): > 50 µM
9 | CCC1=C(C)c2cc3[nH]c(cc4nc(cc5[nH]c(cc1n2)c(C)c5CCC(=O)N[C@@H](CO)C(=O)NCC(=O)N[C@H](C(=O)N[C@@H](CCC(N)=O)C(=O)N[C@@H](CCC(=O)O)C(=O)N[C@@H](CCC(=O)O)C(=O)N[C@@H](Cc1ccc(O)cc1)C(N)=O)[C@@H](C)O)C(CCC(=O)O)=C4C)c(C)c3CC [MP-P3] (X4-SGTQEEY-NH2) | 14.2 | 25.1 | 1.17 | 14.6 | 21.1 | 46.6 | none | none | –
10 | C=CC1=C(C)c2cc3[nH]c(cc4nc(cc5[nH]c(cc1n2)c(C)c5CCC(=O)O)C(CCC(=O)N[C@@H](CO)C(=O)NCC(=O)N[C@H](C(=O)N[C@@H](CCC(N)=O)C(=O)N[C@@H](CCC(=O)O)C(=O)N[C@@H](CCC(=O)O)C(=O)N[C@@H](Cc1ccc(O)cc1)C(N)=O)[C@@H](C)O)=C4C)c(C)c3C=C [PP-P3] (X3-SGTQEEY-NH2) | 18.9 | > 50 | 1.79 | 9.6 | 3.7 | 43.2 | none | none | –
11 | CCC1=C(C)c2cc3[nH]c(cc4nc(cc5[nH]c(cc1n2)c(C)c5CCC(=O)N[C@H](C(=O)N[C@@H](CCC(N)=O)C(=O)N[C@@H](CCC(N)=O)C(=O)N[C@@H](CC(C)C)C(=O)N[C@H](C(=O)N[C@@H](CCCCN)C(=O)N[C@@H](CCCNC(=N)N)C(=O)N[C@@H](Cc1ccccc1)C(=O)N[C@@H](CO)C(=O)N[C@@H](CC(C)C)C(N)=O)[C@@H](C)O)C(C)C)C(CCC(=O)O)=C4C)c(C)c3CC [MP-P1] (X4-VQQLTKRFSL-NH2) | 6.9 | > 50 | 1.16 | 19.9 | 16.2 | 30 | none | none | –
12 | CCC1=C(C)c2cc3[nH]c(cc4nc(cc5[nH]c(cc1n2)c(C)c5CCC(=O)O)C(CCC(=O)NCCCC[C@H](NC(=O)[C@H](CC(C)C)NC(=O)[C@H](CO)NC(=O)[C@H](Cc1ccccc1)NC(=O)[C@H](CCCNC(=N)N)NC(=O)[C@H](CCCCN)NC(=O)[C@@H](NC(=O)[C@H](CC(C)C)NC(=O)[C@H](CCC(N)=O)NC(=O)[C@H](CCC(N)=O)NC(=O)[C@@H](N)C(C)C)[C@@H](C)O)C(N)=O)=C4C)c(C)c3CC [Compound P2-MP] (H-VQQLTKRFSLK(X2)-NH2) | 6.9 | > 50 | 1.30 | 14.5 | 10.7 | 25.5 | none | none | –
